Values quoted from earlier work as cited in paper PMC3121883.
pKd: −log10 of the molar value. Like-named read-outs stand apart in the source and are kept apart here.

How the values were obtained:
[1] = molecular target: Connexin43 C-terminal peptide (UniProt P17302); experiment: fluorescence
[2] = molecular target: Connexin43 C-terminal peptide (UniProt P17302); experiment: fluorescence; remark: listed apart in the source

Sequence of UniProt P17302 (P17302 whole entry, looked up, tested part not stated): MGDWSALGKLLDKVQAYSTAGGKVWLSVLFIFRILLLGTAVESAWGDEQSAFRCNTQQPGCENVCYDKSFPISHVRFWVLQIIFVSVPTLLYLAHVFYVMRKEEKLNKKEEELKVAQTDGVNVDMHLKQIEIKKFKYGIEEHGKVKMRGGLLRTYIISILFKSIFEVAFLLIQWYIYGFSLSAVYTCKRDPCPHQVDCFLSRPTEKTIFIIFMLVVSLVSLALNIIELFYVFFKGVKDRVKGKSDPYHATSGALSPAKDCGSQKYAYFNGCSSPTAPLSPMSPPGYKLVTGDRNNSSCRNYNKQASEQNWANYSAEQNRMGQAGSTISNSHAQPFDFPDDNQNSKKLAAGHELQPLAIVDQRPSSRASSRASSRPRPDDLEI

pKd [1]: 5.14 | pKd [2]: < 4.00
Substance: ZO-1 PDZ2 (from UniProt Q07157)
